Here are results for 1 substance from US5780296.

The subject of the series is T1, REC2 recombinase (Ustilago maydis).
T1 sequence: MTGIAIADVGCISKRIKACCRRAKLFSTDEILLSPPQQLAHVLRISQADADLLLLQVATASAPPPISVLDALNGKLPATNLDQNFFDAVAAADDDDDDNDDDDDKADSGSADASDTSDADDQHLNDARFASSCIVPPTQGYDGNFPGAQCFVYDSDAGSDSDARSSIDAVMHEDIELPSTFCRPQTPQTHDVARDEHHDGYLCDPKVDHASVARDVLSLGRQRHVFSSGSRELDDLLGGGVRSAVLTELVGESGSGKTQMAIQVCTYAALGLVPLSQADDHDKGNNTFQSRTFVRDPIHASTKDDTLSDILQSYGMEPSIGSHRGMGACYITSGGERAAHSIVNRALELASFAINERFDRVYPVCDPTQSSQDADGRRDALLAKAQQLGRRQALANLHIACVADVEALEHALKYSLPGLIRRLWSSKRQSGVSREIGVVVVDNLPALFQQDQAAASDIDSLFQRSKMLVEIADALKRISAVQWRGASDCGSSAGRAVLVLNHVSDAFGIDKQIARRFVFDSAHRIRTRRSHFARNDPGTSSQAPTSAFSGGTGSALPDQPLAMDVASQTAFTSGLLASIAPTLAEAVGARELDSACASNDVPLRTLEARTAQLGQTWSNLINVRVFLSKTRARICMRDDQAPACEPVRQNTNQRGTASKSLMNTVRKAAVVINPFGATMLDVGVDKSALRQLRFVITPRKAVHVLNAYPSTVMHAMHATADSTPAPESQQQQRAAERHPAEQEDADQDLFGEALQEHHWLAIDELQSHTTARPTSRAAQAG
Conditions: DNA-dependent ATPase turnover; 10 mM MgCl2, pH 7.5, 37 C.

Consider M13 single-stranded circular DNA, for which the activity turned out to be 5.3 min⁻¹.
